Reference: patent US20220259297A1 (ACCELERON PHARMA, published 2022)

How the values were obtained:
Test in all cases: SPR (Biacore); receptor-Fc captured by anti-Fc antibody, ligand injected
activin B = molecular target: T1, activin B (UniProt P09529 293-407)
T1 sequence (looked up): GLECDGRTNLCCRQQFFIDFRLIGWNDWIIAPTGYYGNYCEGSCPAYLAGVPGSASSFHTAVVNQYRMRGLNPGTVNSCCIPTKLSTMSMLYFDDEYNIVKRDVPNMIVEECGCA
Protocol: (§1) A Biacore™-based binding assay was used to compare ligand binding selectivity of an exemplary ALK4-Fc:ActRIIB-Fc heterodimeric complex as described above with the binding selectivity of ActRIIB-Fc and ALK4-Fc homodimer complexes. The ALK4-Fc:ActRIIB-Fc heterodimer, ActRIIB-Fc homodimer, and ALK4-Fc homodimer were independently captured onto the system using an anti-Fc antibody. Ligands were injected and allowed to flow over the captured receptor protein. Results are summarized in the Table 5 below, in which ligand off-rates (kd) most indicative of effective ligand traps are denoted by gray shading.

GDF8 = molecular target: T2, GDF8 (UniProt O14793 267-375)
T2 construct: also called myostatin
T2 sequence (looked up): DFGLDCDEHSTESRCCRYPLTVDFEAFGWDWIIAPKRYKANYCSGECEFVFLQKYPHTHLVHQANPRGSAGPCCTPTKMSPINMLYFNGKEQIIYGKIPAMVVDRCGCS
Protocol: as §1

activin A = molecular target: T3, activin A (UniProt P08476 311-426)
T3 sequence (looked up): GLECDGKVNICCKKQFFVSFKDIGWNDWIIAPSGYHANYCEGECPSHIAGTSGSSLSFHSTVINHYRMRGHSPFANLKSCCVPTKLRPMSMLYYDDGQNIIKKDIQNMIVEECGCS
Protocol: as §1

BMP6 = molecular target: T4, BMP6 (UniProt P22004 382-513, limits assumed)
T4 sequence (looked up): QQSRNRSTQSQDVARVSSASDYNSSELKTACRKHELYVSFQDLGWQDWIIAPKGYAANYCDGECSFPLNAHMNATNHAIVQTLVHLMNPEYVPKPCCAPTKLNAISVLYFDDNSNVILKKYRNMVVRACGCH
Protocol: as §1

GDF3 = molecular target: T5, GDF3 (UniProt Q9NR23 251-364)
T5 sequence (looked up): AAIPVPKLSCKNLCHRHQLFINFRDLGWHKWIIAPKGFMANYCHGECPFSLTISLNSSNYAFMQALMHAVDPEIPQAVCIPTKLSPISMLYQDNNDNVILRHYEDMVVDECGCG
Protocol: as §1

BMP10 = molecular target: T6, BMP10 (UniProt O95393 317-424)
T6 sequence (looked up): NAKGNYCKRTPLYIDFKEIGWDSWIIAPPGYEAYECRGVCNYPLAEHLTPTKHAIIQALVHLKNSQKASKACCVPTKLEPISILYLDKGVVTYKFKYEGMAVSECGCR
Protocol: as §1

GDF11 = molecular target: T7, GDF11 (UniProt O95390 299-407)
T7 construct: also called BMP11
T7 sequence (looked up): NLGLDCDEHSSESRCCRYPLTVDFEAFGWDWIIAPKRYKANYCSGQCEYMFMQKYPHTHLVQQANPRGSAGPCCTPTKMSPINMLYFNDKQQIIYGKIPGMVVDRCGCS
Protocol: as §1

koff (activin B): 4e-05 s⁻¹ | kon (activin B): 7.1e+06 M⁻¹ s⁻¹ | koff (GDF8): 0.00021 s⁻¹ | kon (GDF8): 390000 M⁻¹ s⁻¹ | koff (activin A): 0.00015 s⁻¹ | kon (activin A): 1.3e+07 M⁻¹ s⁻¹ | koff (BMP6): 0.0055 s⁻¹ | kon (BMP6): 2e+06 M⁻¹ s⁻¹ | koff (GDF3): 0.017 s⁻¹ | kon (GDF3): 3.4e+06 M⁻¹ s⁻¹ | koff (BMP10): 0.0041 s⁻¹ | kon (BMP10): 5.6e+07 M⁻¹ s⁻¹ | koff (GDF11): 0.00011 s⁻¹ | kon (GDF11): 3.8e+07 M⁻¹ s⁻¹
B1: ALK4-Fc:ActRIIB-Fc heterodimer (Fc fusion)
chain 1: SGPRGVQALLCACTSCLQANYTCETDGACMVSIFNLDGMEHHVRTCIPKVELVPAGKPFYCLSSEDLRNTHCCYTDYCNRIDLRVPSGHLKEPEHPSMWGPVETGGGTHTCPPCPAPELLGGPSVFLFPPKPKDTLMISRTPEVTCVVVDVSHEDPEVKFNWYVDGVEVHNAKTKPREEQYNSTYRVVSVLTVLHQDWLNGKEYKCKVSNKALPAPIEKTISKAKGQPREPQVYTLPPSREEMTKNQVSLTCLVKGFYPSDIAVEWESNGQPENNYDTTPPVLDSDGSFFLYSDLTVDKSRWQQGNVFSCSVMHEALHNHYTQKSLSLSPG
chain 2: GRGEAETRECIYYNANWELERTNQSGLERCEGEQDKRLHCYASWRNSSGTIELVKKGCWLDDFNCYDRQECVATEENPQVYFCCCEGNFCNERFTHLPEAGGPEVTYEPPPTAPTGGGTHTCPPCPAPELLGGPSVFLFPPKPKDTLMISRTPEVTCVVVDVSHEDPEVKFNWYVDGVEVHNAKTKPREEQYNSTYRVVSVLTVLHQDWLNGKEYKCKVSNKALPAPIEKTISKAKGQPREPQVYTLPPSRKEMTKNQVSLTCLVKGFYPSDIAVEWESNGQPENNYKTTPPVLKSDGSFFLYSKLTVDKSRWQQGNVFSCSVMHEALHNHYTQKSLSLSPGK
notes: The C-terminal lysine is optional; also called ALK4-Fc:ActRIIB-Fc heterodimeric complex; ALK4:ActRIIB heterodimer
